This note sets out measurements from publication PMC11414720, “Molecular basis of TMED9 oligomerization and entrapment of misfolded protein cargo in the early secretory pathway” (Science Advances, 2024).

Values joined by “and” are separate entries in the source; they are usually repeats but may differ in a detail not shown here. Equal values may be shown once. Where only a bound is given, the exact number is not on record here.

Data set [1] deals with the molecule itself. The data set is described as follows: mass photometry; Refeyn TwoMP; samples in 0.003% LMNG, 0.0003% CHS diluted from 7 μM into 25 mM Hepes pH 7.4, 150 mM KCl, 1 mM DTT, measured within 10 s.
Data set [2] deals with the molecule itself. The data set is described as follows: SEC; gel filtration of overexpressed protein in octyl-β-glucoside, a harsher detergent.
Data set [3] deals with the molecule itself. The data set is described as follows: cryo-EM structure; purified TMED9 at 1.7 mg/ml in 20 mM tris pH 8.0, 150 mM NaCl, 0.02% LMNG+CHS; octamer refined with C2 symmetry, dodecamer with no symmetry.
Data set [4] concerns the molecule itself. The data set is described as follows: SEC; Superose 6 gel filtration of TMED9 purified on anti-FLAG resin in LMNG+CHS (20 mM tris pH 8.0, 150 mM NaCl); solubilization by digitonin or glyco-diosgenin gave a similar size distribution. Background: Size exclusion chromatography separates by hydrodynamic size, large species first.

B1: full-length human TMED9 (transmembrane emp24 domain 9), FLAG-tagged (receptor, UniProt Q9BVK6 38-235, looked up)
chain: LYFHIGETEKKCFIEEIPDETMVIGNYRTQLYDKQREEYQPATPGLGMFVEVKDPEDKVILARQYGSEGRFTFTSHTPGEHQICLHSNSTKFSLFAGGMLRVHLDIQVGEHANDYAEIAAKDKLSELQLRVRQLVEQVEQIQKEQNYQRWREERFRQTSESTNQRVLWWSILQTLILVAIGVWQMRHLKSFFEAKKLV
notes: TMED9 (transmembrane emp24 domain 9), human, full length; Seen as octamer, dodecamer and higher-order oligomers; the rows are of the chain with itself; TMED9 has a signal peptide; No cleavage of the tag is described; also called WT TMED9; recombinant TMED9; source: Expi293F, transiently transfected, purified in LMNG+CHS (anti-FLAG resin, Superose 6 gel filtration); not shown: FLAG, N-terminal, …
As for B1, the stoichiometry N – broadly, the number of molecules, sites or subunits per partner or assembly – in data set [1] was at least 8; in data set [2] it was 2; in data set [3] it was 8 and 12.

B2: TMED9 R191E (receptor, human, UniProt Q9BVK6 38-235, looked up)
chain: LYFHIGETEKKCFIEEIPDETMVIGNYRTQLYDKQREEYQPATPGLGMFVEVKDPEDKVILARQYGSEGRFTFTSHTPGEHQICLHSNSTKFSLFAGGMLRVHLDIQVGEHANDYAEIAAKDKLSELQLRVRQLVEQVEQIQKEQNYQRWREEEFRQTSESTNQRVLWWSILQTLILVAIGVWQMRHLKSFFEAKKLV
notes: TMED9, human, mutant of the full-length protein; also called CC interface mutation R191E
With B2, the binding result in data set [4] is recorded as “binds”.

B3: TMED9 R223E (for gel filtration and mass photometry) (receptor, human, UniProt Q9BVK6 38-235, looked up)
chain: LYFHIGETEKKCFIEEIPDETMVIGNYRTQLYDKQREEYQPATPGLGMFVEVKDPEDKVILARQYGSEGRFTFTSHTPGEHQICLHSNSTKFSLFAGGMLRVHLDIQVGEHANDYAEIAAKDKLSELQLRVRQLVEQVEQIQKEQNYQRWREERFRQTSESTNQRVLWWSILQTLILVAIGVWQMEHLKSFFEAKKLV
notes: TMED9, human, mutant of the full-length protein
With B3, the binding result in data set [1] is given as “binds”.

B4: TMED9 E190R (receptor, human, UniProt Q9BVK6 38-235, looked up)
chain: LYFHIGETEKKCFIEEIPDETMVIGNYRTQLYDKQREEYQPATPGLGMFVEVKDPEDKVILARQYGSEGRFTFTSHTPGEHQICLHSNSTKFSLFAGGMLRVHLDIQVGEHANDYAEIAAKDKLSELQLRVRQLVEQVEQIQKEQNYQRWRERRFRQTSESTNQRVLWWSILQTLILVAIGVWQMRHLKSFFEAKKLV
notes: TMED9, human, mutant of the full-length protein; also called CC domain mutation E190R
Consider B4, for which the binding result in data set [1] is “binds”.

B5: TMED9 W205A (receptor, human, UniProt Q9BVK6 38-235, looked up)
chain: LYFHIGETEKKCFIEEIPDETMVIGNYRTQLYDKQREEYQPATPGLGMFVEVKDPEDKVILARQYGSEGRFTFTSHTPGEHQICLHSNSTKFSLFAGGMLRVHLDIQVGEHANDYAEIAAKDKLSELQLRVRQLVEQVEQIQKEQNYQRWREERFRQTSESTNQRVLAWSILQTLILVAIGVWQMRHLKSFFEAKKLV
notes: TMED9, human, mutant of the full-length protein; also called CC interface mutation W205A
Consider B5, for which the binding result in data set [4] is “binds”.

B6: TMED9 Q177A (receptor, human, UniProt Q9BVK6 38-235, looked up)
chain: LYFHIGETEKKCFIEEIPDETMVIGNYRTQLYDKQREEYQPATPGLGMFVEVKDPEDKVILARQYGSEGRFTFTSHTPGEHQICLHSNSTKFSLFAGGMLRVHLDIQVGEHANDYAEIAAKDKLSELQLRVRQLVEQVEAIQKEQNYQRWREERFRQTSESTNQRVLWWSILQTLILVAIGVWQMRHLKSFFEAKKLV
notes: TMED9, human, mutant of the full-length protein; also called CC interface mutation Q177A
Consider B6, for which the binding result in data set [4] was “binds”.
